Reference: US20100158922A1 (published 2010)

Biological target: T1, recombinant human IFNγ (human, UniProt P01579 24-166)
T1 chain: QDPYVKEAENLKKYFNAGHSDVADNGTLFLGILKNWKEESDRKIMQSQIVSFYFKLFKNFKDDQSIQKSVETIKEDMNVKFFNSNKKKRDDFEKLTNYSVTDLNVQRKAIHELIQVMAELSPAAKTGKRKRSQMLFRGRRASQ
Experiment: SPR (Biacore)

B1: NI-0501 (antibody, V domains shown)
VH: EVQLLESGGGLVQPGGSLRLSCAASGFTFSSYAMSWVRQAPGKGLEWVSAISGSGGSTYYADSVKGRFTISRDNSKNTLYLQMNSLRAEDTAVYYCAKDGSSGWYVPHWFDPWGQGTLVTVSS
VL: NFMLTQPHSVSESPGKTVTISCTRSSGSIASNYVQWYQQRPGSSPTTVIYEDNQRPSGVPDRFSGSIDSSSNSASLTISGLKTEDEADYYCQSYDGSNRWMFGGGTKLTVL
With B1 the Kd was 0.732 nM.
